From doi:10.1101/2020.09.30.318972 (bioRxiv, 2020) come the findings set out here.

Test [1] addresses T1, SARS-CoV-2 spike protein receptor-binding domain (SARS-CoV-2, UniProt P0DTC2). The experiment in a line: SPR. For orientation: Surface plasmon resonance follows binding to a sensor surface in real time, without labels.
Test [2] concerns the target T1, SARS-CoV-2 spike protein …. The experiment in a line: crystal structure.

B1: LY-CoV555 (antibody, V domains shown)
VH: QVQLVQSGAEVKKPGSSVKVSCKASGGTFSNYAISWVRQAPGQGLEWMGRIIPILGIANYAQKFQGRVTITADKSTSTAYMELSSLRSEDTAVYYCARGYYEARHYYYYYAMDVWGQGTAVTVSS
VL: not shown
For the molecule B1, the binding result in test [1] was “binds”.

B2: LY-CoV555 Fab (Fab, V domains shown)
VH: B1 VH
VL: not shown
For the molecule B2, the binding result in test [2] is reported as “binds”.
